Test: yeast display, Sf9 membrane polyspecificity reagent, FACS + sequencing; frameworks hold sequencing errors
Outline: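 Polyreactivity labels are assigned by the sorting gate from which each nanobody was recovered. The gates were low and high (top ~1%), set on anti-HA fluorescence for expression and streptavidin fluorescence for reagent binding. Before sorting, galactose-induced (36–48 hours) yeast display cells were stained for 1 hour at 4 °C with 10% biotinylated, detergent-solubilized Sf9 membrane reagent.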

Row | Sequence | polyreactivity (PSR sort gate)
1 | QVQLVESGGGLLQAGGSLRLSCAASGSIFPQYAMGWYRPAPGKERELVAAITWSGSRTRYADSVKGRFTISRDNAKNTVYLQMNSLKPEDTAVYYCNAYWGRSGYAGGYWGQGTQVTVSS | high polyreactivity
2 | QVQLVESGGGLLQAGGSLRLSCAASGSIFQYKAMGWYRQAPGKERELVAAINGGGSTYYADSVKGRFTISRDNEKNTVYLQMNSLKPEYTAVYYCAADGGAYYYRGPGKFGIEDSWGQGTQVTVSS | low polyreactivity
3 | QVQLVESGGGLLQAGGSLRLSCAASGSIFYINAKGWYRQAPGKERELVAAITSDGSTYYADSVKGRFTISRDYANYTVYLQLNSLKPEYSAVYYCAADLTSDQYLYYWYWFSSWGQGTQGTVSS | low polyreactivity
4 | QVQLVESGGGLLQAGGSLRLSCAASGSTFDSYAMGWYRQAPGKERELVAAITNGGSTYYADSVKGRFTISRDNAKNTVYLQMNSLKPEDTAVYYCATDDYLLDYLYDYWGQGTQVTVSS | low polyreactivity
5 | QVQLVESGGGLLQAGGSLRLSCAASGSTFGHYAMGWYRQAPGKERELVAAITWSGGSTYYADSVKGRFTISGDNAKNTVYLQMKSLKPEDTAVYDCAARFGGGAARHGYWGQGTQVTVSS | high polyreactivity
6 | QVQLVESGGGLLQAGGSLRLSCAASGSTLRRYAMGWDRQAPGKERELVAAISGSGDSTYYADSVKGRFTISRDNAKNTVYLQMNSLKPEDTAVYYCNAVYAFNGYDYWGQGTQVTVSS | low polyreactivity
7 | QVQLVESGGGLLQAGGSLRLSCAASGYTSSRYAMGWYRQAPGKESELLAAISGTGGSTNYADSVKGRFTISRDNAKNTVYLQMNRLKPEDSAVYYCATRSFGAGYVGVRYYYWGQATQVTVSS | high polyreactivity
8 | QVQLVESGGGLLQAGGSLRLSCAASVSIFSIYAMGWYRQAPGKERELVAAITLGGGSTYYADSVKGRFTISRDNAKNTVYLQMNCLTPEDTAVYYCAASSVYGYSYWGQGTQVTVSS | high polyreactivity
9 | QVQLVESGGGLLQAGGSLRLSCAATGITYDYYDMGWYRQAPGKERELVAAIRWSGTSKYYADSVKGRFTISRDNANNTVYIQMNSLKTEDSAVYYCAALAVGNDYRRYGYWGQGTQVTVSS | high polyreactivity
10 | QVQLVESGGGLLQAGGSLRLSCADRRTLSFYAKGCSIQAPGKERELVAAISRSGGSTYYADSEKGRFTISRDNAKNTGKLQMNRLKPEDTAVYYFAARSSGGYDYWGQGTQVTVSS | high polyreactivity
11 | QVQLVESGGGLLQAGGSLRLSCADSGSTFSRYSMGWYRQAPGKEREFVAAISRSGASTYYADSVKGRFTISRDNEMNTVNLQMNSLKPEDTAVYYCNTRRWRFVKYGYWGQGTQVTVSS | high polyreactivity
12 | QVQLVESGGGLLQAGGSLRLSCASSGLIFLGYTMGRYIQAPGKERELVAAISRRGGRTYYADSVKGLFTISRDNAKNTVYLLMNSLKPEDTAVYYCNADITSSGPKSDYWGQGTQVTVSS | high polyreactivity
13 | QVQLVESGGGLLQAGGSLRLSCASSGRIFRWNAMGWYRQAPGKERELVAAISARGGSTYYADSVKGRFTISRDNAKNTVYLQMNSLKPEDTAVYYCAKVSSRGFDYWGQGTQVTVSS | high polyreactivity
14 | QVQLVESGGGLLQAGGSLRLSSAASGLTFAAYAMGWYRQAPGKEREFVAAITSSGGSTYYADSVKGRFTISRDNAKNSVYLQMNSLKPEDTAVYYCAAYYYDHYYWGQGTQVTVSS | high polyreactivity
15 | QVQLVESGGGLLQAGGSLRVSCAASGRTFLRYAMGWSIKAPGKERELVAGIDSSGGNTYYADSVKGRFTISRDTAKKYVYLQINSLKPEDTAVYYCAPRRSCKYRGGYYWGQGTQVTVSS | high polyreactivity
16 | QVQLVESGGGLLQAGRSLRLTCAASGRTFRAYAMGWYRQAPGKEMELVASISRRGGSTYYADSVKGRFTISRDNAKNSVYLQMNSLKPEDTAVSYCAASDKYLQYDYWGQGSQVTVSS | high polyreactivity
17 | QVQLVESGGGLLQSGGSLRLSCAASGFIFRSYAMGWYRQAPGKEREFVASISSRGGTTYYADSVKGRFTISRDNAKKTVYLQMNRLKPEDTAVYYCAADYFRWAGWGYEYWGQGSQVTVSS | high polyreactivity
18 | QVQLVESGGGLQQAGGSLRLSCDASGITFRQYTMGWCRQAPGKERELVAAITSSGRTYYADSVKGRFTISRDNAKNTVYLHMNSLKPEDTAVYYCAAETYYFGYGYWGQGTQVTVSS | high polyreactivity
19 | QVQLVESGGGLVEAGGRLRLSCAAYGRIFYYNGMGCYRQAPGKERELVAAITSGGSTNYADSEKGRFTISRDNAKNNVYLQMKSVKPEDTAVSYCAADYYYYVAGVHFDYWGQGTQVTVSS | low polyreactivity
20 | QVQLVESGGGLVEAGGSLRLSCAASASIFGLNAMGWYRQAPGKEREFVAAISWSDGSTYYADSVKGRFTISRDNAKNTVYLQMNSLKPEDTAVYYCSKATEYYAESDDYDYWGQGTQVTVSS | low polyreactivity
21 | QVQLVESGGGLVEAGGSLRLSCAASGRTFSPNTMGWYRQAPGKEREFVAAITASGDSTYYADSVKGRFTISRDNAKNTVYLQMNSLKPEDTAVYYCATDSNWYWGFNYWGQGTQVTVSS | low polyreactivity
22 | QVQLVESGGGLVEAGGSLRLSCAASGYIFKSYVMGWYRQAPGTERELVAAITWSGGSTYYADSVNGRFTISRDNAKNTVYLQMNSLNPEDTAVYYCAAYPRRYRTTYDYWGQGTQVTVSS | high polyreactivity
